Consider 6 substances from paper doi:10.1101/2021.04.13.439572.

What all share (experiment): fluorescence polarisation
Experiment [1] deals with KPNB1 HEAT, tag cleaved, for affinity measurements.
In experiment [2] the target is 14-3-3 protein sigma (14-3-3 SFN), tag cleaved, for affinity measurements.
The target in experiment [3] is KPNA4 ARM, MBP-tagged, for affinity measurements.
The target of experiment [4] is MDM2 SWIB, cleaved from the His-GST tag, for affinity measurements.
Experiment [5] concerns the target TLN1 PTB, tag cleaved, for affinity measurements.

In the case of “KPNA2_(514-529) C-terminal synthetic peptide (from UniProt P52292 514-529)”, the Ki in experiment [1] came out at 1 mM.
Consider MAP1A_(1836-1851) synthetic peptide, for which, in experiment [2], the Ki was found to be 355 µM.
Take “NKX2-5_(192-207) K194R synthetic peptide (from UniProt P52952 192-207)”: in experiment [3], the fold loss of affinity against wild-type NKX2-5 (192-207) is 10 fold.
“NUMB_(615-630) synthetic peptide (from UniProt P49757 615-630)” gave a Ki in experiment [4] of 3300 nM.
Turning to “RNF115_(69-84) synthetic peptide (from UniProt Q9Y4L5 69-84)”, the Ki in experiment [4] was 170 nM.
“integrin beta-3 ITB3_(763-778) synthetic peptide” gave a Ki in experiment [5] of 500 µM.

A word on the Ki: it is the dissociation constant of the complex between target and ligand, obtained from inhibition or displacement. Read a high Ki as a looser hold on the target.
